{"source": "patent US11236354B2", "about": "“Glyphosate-n-acetyltransferase (GLYAT) sequences and methods of use” (PIONEER HI-BRED INTERNATIONAL, INC., priority 2013, dated 2022)", "key": {"O=C(O)CNCP(=O)(O)O [1]": {"test_system": "O=C(O)CNCP(=O)(O)O", "assay": "cells, lysate or membranes named", "conditions": "37.0 °C"}, "N[C@@H](CC(=O)O)C(=O)O": {"test_system": "N[C@@H](CC(=O)O)C(=O)O", "assay": "cells, lysate or membranes named", "conditions": "37.0 °C"}, "O=C(O)CNCP(=O)(O)O [2]": {"test_system": "O=C(O)CNCP(=O)(O)O", "assay": "Substrate saturation kinetic analysis of purified GLYAT", "format": "biochemical", "conditions": "other: SEQ ID NO:7, pH 7.0, non-varied substrate saturating, 37.0 °C", "experimental": "E. coli cultures in LB or 2×YT were grown overnight at 37° C. to saturation. The cells were used as a 2% inoculum into fresh media. When OD reached 0.6, IPTG was added to 0.2 mM and growth was continued for at least 6 hours. Cells were harvested by centrifugation and stored at −80° C. Cells were lysed with BPER (Pierce) containing 1 mM dithiothreitol, 0.2 mg/ml lysozyme, 2 mg/ml protease inhibitor cocktail (Sigma bacterial cell cocktail, P8465) and endonuclease. Lysate supernatants were passed through a column of NHS-activated Agarose (Thermo, #26197) derivatized with coenzyme A. Columns were washed with 25 mM Hepes, pH 7, containing progressively higher concentrations of KCl, then eluted with 25 mM Hepes, 100 mM KCl, 10% ethylene glycol and 1 mM acetyl CoA. Purity as evaluated by polyacrylamide gel electrophoresis was deemed consistently high enough to be assumed to be 100%. Protein concentration was determined with the Bradford assay using a large-scale lot of produced GLYAT protein as standard.\nKinetic parameters for various substrates were obtained using a range of seven substrate concentrations plus a blank containing none of the varied substrate. The non-varied substrate was present at a saturating concentration. Six-microliter aliquots of 50-fold concentrated stock solutions of the varied substrate were placed in a 96-well assay plate (Greiner BioOne UV-Star). […] Absorbance was monitored for one minute with a Spectramax 384 Plus plate reader (Molecular Devices). If the amino acid present at position 30 (29 if alanine is absent at position 2) was cysteine, absorbance was monitored at 235 nm, which directly detects cleavage of the sulfoester bond of acetyl CoA. If the amino acid present at position 30 (29 if alanine is absent at position 2) was isoleucine, 0.5 mM 5,5′-dithiobis-(2-nitrobenzoic acid), which reacts with the coenzyme A thiol generated in the enzyme catalyzed reaction, was included in the reaction mix and absorbance was monitored at 412 nm. […]"}, "[3]": {"conditions": "other: SEQ ID NO:6, pH 7.0, non-varied substrate saturating"}, "[4]": {"conditions": "other: SEQ ID NO:9, pH 7.0, non-varied substrate saturating"}, "[5]": {"conditions": "other: SEQ ID NO:1, pH 7.0, non-varied substrate saturating"}, "[6]": {"conditions": "other: SEQ ID NO:3, pH 7.0, non-varied substrate saturating"}}, "data": [{"substance": "GLYAT variant SEQ ID NO:6 (derived from SEQ ID NO:1 and 2) (Bacillus licheniformis DSM 13 = ATCC 14580; A28V/D131E/E119K/E14D/E65Q/E67K/E68K/G37R/I132T/I135A/I15L/I19V/I53V/I91V/K101R/K144R/K58Q/L105M/L106I/L26I/L36T/L97I/M75A/R47G/R92K/T89S/V114A/V4I/Y130F/Y45F/Y46C)", "values": [{"measurement": "Km", "setting": "O=C(O)CNCP(=O)(O)O [1]; [3]", "value": 2240, "unit": "µM"}, {"measurement": "kcat", "setting": "O=C(O)CNCP(=O)(O)O [1]; [3]", "value": 11.2, "unit": "s⁻¹"}, {"measurement": "kcat/Km", "setting": "O=C(O)CNCP(=O)(O)O [1]; [3]", "value": 5130, "unit": "M⁻¹ s⁻¹"}, {"measurement": "Km", "setting": "N[C@@H](CC(=O)O)C(=O)O; [3]", "value": 66800, "unit": "µM"}, {"measurement": "kcat", "setting": "N[C@@H](CC(=O)O)C(=O)O; [3]", "value": 0.183, "unit": "s⁻¹"}, {"measurement": "kcat/Km", "setting": "N[C@@H](CC(=O)O)C(=O)O; [3]", "value": 2.67, "unit": "M⁻¹ s⁻¹"}]}, {"substance": "GLYAT variant SEQ ID NO:7 (derived from SEQ ID NO:1 and 2) (Bacillus licheniformis DSM 13 = ATCC 14580; A28V/D131E/E119K/E14D/E65Q/E67K/E68K/E79G/E83D/G37R/G38S/G48A/I132L/I135A/I15L/I19V/I2L/I53V/I91V/K101R/K144R/K58Q/L105M/L106I/L26I/L36T/L97I/M75V/N109F/R47G/R92K/T33S/T89S/V114A/Y130F/Y31W/Y45F)", "values": [{"measurement": "Km", "setting": "O=C(O)CNCP(=O)(O)O [2]", "value": 800, "unit": "µM"}, {"measurement": "kcat", "setting": "O=C(O)CNCP(=O)(O)O [2]", "value": 7.13, "unit": "s⁻¹"}, {"measurement": "kcat/Km", "setting": "O=C(O)CNCP(=O)(O)O [2]", "value": 8870, "unit": "M⁻¹ s⁻¹"}]}, {"substance": "GLYAT variant SEQ ID NO:9 (derived from SEQ ID NO:1 and 2) (Bacillus licheniformis DSM 13 = ATCC 14580; A28V/D131E/E119K/E14D/E65Q/E67K/E68K/G37R/G38S/I132T/I135A/I15L/I19V/I53V/I91V/K101R/K144R/K58Q/L105M/L26I/L97I/M75V/R47G/R92K/T89S/V114A/Y130F/Y45F)", "values": [{"measurement": "Km", "setting": "O=C(O)CNCP(=O)(O)O [1]; [4]", "value": 250, "unit": "µM"}, {"measurement": "kcat", "setting": "O=C(O)CNCP(=O)(O)O [1]; [4]", "value": 11.6, "unit": "s⁻¹"}, {"measurement": "kcat/Km", "setting": "O=C(O)CNCP(=O)(O)O [1]; [4]", "value": 45430, "unit": "M⁻¹ s⁻¹"}, {"measurement": "Km", "setting": "N[C@@H](CC(=O)O)C(=O)O; [4]", "value": 78700, "unit": "µM"}, {"measurement": "kcat", "setting": "N[C@@H](CC(=O)O)C(=O)O; [4]", "value": 2.58, "unit": "s⁻¹"}, {"measurement": "kcat/Km", "setting": "N[C@@H](CC(=O)O)C(=O)O; [4]", "value": 33.3, "unit": "M⁻¹ s⁻¹"}]}, {"substance": "GLYAT (glyphosate-N-acetyltransferase), parent, SEQ ID NO:1 (Bacillus licheniformis DSM 13 = ATCC 14580; E119R/E14D/E65Q/E67K/E68K/G37R/G38S/I132T/I135V/I15L/I19V/I53V/I91V/K101R/K144R/K58Q/L105M/L106I/L145I/L26I/L36T/L97I/M75V/R47G/R92K/T33S/T89S/V114A/Y130F/Y31F/Y45F)", "values": [{"measurement": "Km", "setting": "O=C(O)CNCP(=O)(O)O [1]; [5]", "value": 1360, "unit": "µM"}, {"measurement": "kcat", "setting": "O=C(O)CNCP(=O)(O)O [1]; [5]", "value": 24.23, "unit": "s⁻¹"}, {"measurement": "kcat/Km", "setting": "O=C(O)CNCP(=O)(O)O [1]; [5]", "value": 18000, "unit": "M⁻¹ s⁻¹"}, {"measurement": "Km", "setting": "N[C@@H](CC(=O)O)C(=O)O; [5]", "value": 32900, "unit": "µM"}, {"measurement": "kcat", "setting": "N[C@@H](CC(=O)O)C(=O)O; [5]", "value": 7.3, "unit": "s⁻¹"}, {"measurement": "kcat/Km", "setting": "N[C@@H](CC(=O)O)C(=O)O; [5]", "value": 229, "unit": "M⁻¹ s⁻¹"}]}, {"substance": "GLYAT variant SEQ ID NO:3 (derived from SEQ ID NO:1 and 2) (Bacillus licheniformis DSM 13 = ATCC 14580; A28V/D131E/E119K/E14D/E65Q/E67K/E68K/E83D/G37R/I132T/I135V/I15L/I19V/I2L/I53V/I91V/K101R/K144R/K58Q/L105M/L106I/L26I/L97I/M75V/R47G/R92K/T89S/V114A/Y130F/Y45F)", "values": [{"measurement": "Km", "setting": "O=C(O)CNCP(=O)(O)O [1]; [6]", "value": 600, "unit": "µM"}, {"measurement": "kcat", "setting": "O=C(O)CNCP(=O)(O)O [1]; [6]", "value": 11.6, "unit": "s⁻¹"}, {"measurement": "kcat/Km", "setting": "O=C(O)CNCP(=O)(O)O [1]; [6]", "value": 19320, "unit": "M⁻¹ s⁻¹"}, {"measurement": "Km", "setting": "N[C@@H](CC(=O)O)C(=O)O; [6]", "value": 35100, "unit": "µM"}, {"measurement": "kcat", "setting": "N[C@@H](CC(=O)O)C(=O)O; [6]", "value": 2.72, "unit": "s⁻¹"}, {"measurement": "kcat/Km", "setting": "N[C@@H](CC(=O)O)C(=O)O; [6]", "value": 77.8, "unit": "M⁻¹ s⁻¹"}]}]}
